{"source": "patent US20220195054A1", "about": "(BERGEN TEKNOLOGIOVERF RING, published 2022)", "binders": {"B1": {"name": "chimeric monoclonal antibody 10G5 (mouse variable/human constant IgG1) (antibody, V domains shown)", "VH": "QVQLQQSGAELVRPGASVKLSCKASGYSFTDFYINWVRQRPGQGLEWIARIFPGGDNTYYNEKFKGKATLTAEESSSTAYIQLSSLTSEDSAVYFCARRGLYYAMDYWGQGISVTVSS", "VL": "DVLMTQTPLSLPVSLGDQASISCRSSQSLVHSNGIPYLHWYLQKPGQSPKLLIYRVSNRFSGVPDRFSGSGSGTDFTLKISRVEAEDLGVYFCSQGTHVPPTFGGGTKLEIK", "notes": "also called c10G5; C10G5"}}, "key": {"[1]": {"target": "T1, human Axl receptor on cells (MDA-MB-231, HeLa, LX2, Axl-positive cells) (human, UniProt P30530 26-894)", "T1 construct": "Endogenous receptor of human tumour cell lines", "assay": "flow cytometry titration on MDA-MB-231 cells, Kd of the fitted curve, the axis of the fitted curves is Conc. (nM) [table under the graph]", "method": "(§1) The cells were collected by centrifugation at 200 g for 5 min. The antibody was diluted for total concentration in PBS containing 0.2% bovine serum albumin (BSA). Cell staining was performed using 200 μL of cell suspension comprising 200 000 cells for 30 min at room temperature. […] After two washing steps with PBS/0.2% BSA, the cells were resuspended in 200 μL PBS and kept on ice before analysis on Fortessa flow cytometer (BD Biosciences)."}, "[2]": {"target": "T1, human Axl receptor on cells …", "assay": "flow cytometry on MDA-MB-231 cells, APC-conjugated anti-human IgG F(ab')2 detection", "method": "as §1"}, "[3]": {"target": "T2, recombinant human Axl-Fc chimera (rhAxl-Fc; R&D Systems, Cat. no. 154-AL) (human, UniProt P30530 26-451)", "T2 construct": "Bought construct; also called rhAxi-Fc; Hu-Axl-Fc; Fc part of the bought chimera not given", "assay": "SPR two-injection competition on immobilised Axl-Fc; first injection"}, "[4]": {"target": "T2, recombinant human Axl-Fc chimera …", "assay": "SPR (Biacore 3000, 25 C), rhAxl-Fc immobilised (190 RU), antibody as analyte, koff/kon", "method": "(§2) The precise kinetic analysis was performed using BIA evaluation software and curve fitting according to 1:1 Langmuir binding model."}, "[5]": {"target": "T1, human Axl receptor on cells …", "assay": "flow cytometry on MDA-MB-231 cells, APC-conjugated anti-human IgG F(ab')2 detection", "remark": "listed apart in the source"}, "[6]": {"target": "T1, human Axl receptor on cells …", "assay": "cell-based or functional assay"}, "[7]": {"target": "T2, recombinant human Axl-Fc chimera …", "assay": "SPR (Biacore 3000, 25 C), rhAxl-Fc immobilised; ln2/koff", "method": "as §2"}, "[8]": {"target": "T2, recombinant human Axl-Fc chimera …", "assay": "SPR (Biacore 3000, 25 C), rhAxl-Fc immobilised (190 RU), antibody as analyte, 1:1 Langmuir", "method": "as §2"}}, "note": "Read-outs that look alike come from different tables or passages of the source.", "data": [{"binder": "B1", "values": [{"measurement": "Kd", "setting": "[1]", "value": 92.2, "unit": "pM"}, {"measurement": "EC50 (read off the curve)", "setting": "[2]", "value": "~100", "unit": "pM"}, {"measurement": "1st Response", "setting": "[3]", "value": "~170"}, {"measurement": "Kd", "setting": "[4]", "value": 103, "unit": "pM"}, {"measurement": "EC50 (read off the curve)", "setting": "[5]", "value": "~200", "unit": "pM"}, {"measurement": "EC50 (pM), killing of MDA-MB-231 cells by antibody coupled to Saporin (FabFc-ZAP), XTT/PMS viability after 72 hrs", "setting": "[6]", "value": 5.71, "unit": "pM"}, {"measurement": "Half-life (t1/2)", "setting": "[7]", "value": 1.14, "unit": "h"}, {"measurement": "koff", "setting": "[8]", "value": 0.000169, "unit": "s⁻¹"}, {"measurement": "kon", "setting": "[8]", "value": "1.64e+06", "unit": "M⁻¹ s⁻¹"}]}]}
